Data as given in patent publication US20080003614.

What was measured:
[1] = system: 35S-labeled FLAG-MAVS (in vitro translated)
[2] = system: 35S-labeled FLAG-MAVS-C508R (in vitro translated)

Substance | cleavage of 35S-labeled MAVS in vitro (SDS-PAGE, PhosphorImaging) [1] | cleavage of 35S-labeled MAVS in vitro (SDS-PAGE, PhosphorImaging) [2]
Flag-NS3/4A (S139A), protease-dead mutant | the wild type MAVS was cleaved by the active NS3/4A protease, but not the inactive NS3/4A mutant | –
Flag-NS3/4A (wild type hepatitis C virus NS3/4A serine protease) | the wild type MAVS was cleaved by the active NS3/4A protease | a point mutation at Cys-508 completely blocked the cleavage of MAVS by NS3/4A in vitro
